The source of these data is patent US12269859B2, “Synthetic immune receptors and methods of use thereof” (Angeles Therapeutics, Inc., priority 2016, dated 2025).

The experiment concerns target antigen-expressing cell line. Kind of experiment: Jurkat NFAT-GFP assay, coculture with target cell lines expressing the respective target antigen (summary Table 10A). The arrangement: key: The signs +/−, +, 2+ etc. after the name of the cell lines indicate the relative degree of positivity on the Jurkat-NFAT-GFP assay as measured by the % GFP positive cells; +: relative degree of positivity on the Jurkat-NFAT-GFP assay as measured by the % GFP positive cells; 2+: relative degree of positivity on the Jurkat-NFAT-GFP assay as measured by the % GFP positive cells. The class given is cell-based, human. The note with it: relative % GFP positive cells; for NFAT-GFP ASSAY Positive Cell lines: HL60: SIR-expressing Jurkat-NFAT-GFP cells cocultured with HL60; for NFAT-GFP ASSAY Positive Cell lines: RAJI: SIR-expressing Jurkat-NFAT-GFP cells cocultured with RAJI. Summed up: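 Jurkat cells carrying an NFAT-driven GFP reporter and lentivirally expressing a SIR were cocultured with antigen-bearing target cells (E:T ~1:2) for about 4–18 h. GFP induction read by flow cytometry as % GFP+ cells, scored positive and graded (+/−, +, 2+) against parental Jurkat-NFAT-GFP cells.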

B1: 083116-D03 (protein)
chain: MALPVTALLLPLALLLHAARPLEGKPIPNPLLGLDSTGSGEDLKNVFPPEVAVFEPSKAEIAHTQKATLVCLATGFYPDHVELSWWVNGKEVHSGVCTDPQPLKEQPALNDSRYCLSSRLRVSATFWQNPRNHFRCQVQFYGLSENDEWTQDRAKPVTQIVSAEAWGRADCGITSASYHQGVLSATILYEILLGKATLYAVLVSALVLMAMVKRKDSRGRAKRSGSGATNFSLLKQAGDVEENPGPTSMALPVTALLLPLALLLHAARPDIQMTQSPATIENTSLSASVGDRVTITCRASQGISSWLTWYQQKPEKAPKSLIYAASSLQSGVPSRFSGSGSGTDFTLTISSLQPEDFATYYCQQYDSYPITFGQGTRLEIKGGGGSGGGGSGGGGSQVQLQQWGAGLLKPSETLSLTCAVYGGSFSAYYWSWIRQPPGKGLEWIGDINHGGGTNYNPSLKSRVTISVDTSKNQFSLKLNSVTAADTAVYYCASLTAYWGQGSLVTVSSTREQKLISEEDLGSGTPFPSLAPPIMLLVDGKQQMVVVCLVLDVAPPGLDSPIWFSAGNGSALDAFTYGPSPATDGTWTNLAHLSLPSEELASWEPLVCHTGPGAEGHSRSTQPMHLSGEASTARTCPQEPLRGTPGGALWLGVLRLLLFKLLLFDLLLTCSCLCDPAGPLPSPATTTRLRALGSHRLHPATETGGREATSSPRPQPRDRRWGDTPPGRKPGSPVRAKRSGSGVKQTLNFDLLKLAGDVESNPGPSRSRGHMTEYKPTVRLATRDDVPRAVRTLAAAFADYPATRHTVDPDRHIERVTELQELFLTRVGLDIGKVWVADDGAAVAVWTTPESVEAGAVFAEIGPRMAELSGSRLAAQQQMEGLLAPHRPKEPAWFLATVGVSPDHQGKGLGSAVVLPGVEAAERAGVPAFLETSAPRNLPFYERLGFTVTADVEVPEGPRTWCMTRKPGA
modifications: Polynucleotide encoding a Synthetic Immune Receptor (SIR)
For the molecule B1, the “NFAT-GFP ASSAY Positive Cell lines: L428” value (SIR-expressing Jurkat-NFAT-GFP cells cocultured with L428) is reported as “L428 (+/−)”.

B2: 041216-G06 (protein)
chain: MALPVTALLLPLALLLHAARPDEIVLTQSPGSLAVSPGERVTMSCKSSQSVFFSSSQKNYLAWYQQIPGQSPRLLIYWASTRESGVPDRFTGSGSGTDFTLTISSVQPEDLAIYYCHQYLSSRTFGQGTKLEIKRLEGKPIPNPLLGLDSTGSGEDLKNVFPPEVAVFEPSKAEIAHTQKATLVCLATGFYPDHVELSWWVNGKEVHSGVCTDPQPLKEQPALNDSRYCLSSRLRVSATFWQNPRNHFRCQVQFYGLSENDEWTQDRAKPVTQIVSAEAWGRADCGITSASYHQGVLSATILYEILLGKATLYAVLVSALVLMAMVKRKDSRGRAKRSGSGATNFSLLKQAGDVEENPGPTSMDWIWRILFLVGAATGAHSFEQVQLQQPGAEVVKPGASVKMSCKASGYTFTSYYIHWIKQTPGQGLEWVGVIYPGNDDISYNQKFQGKATLTADKSSTTAYMQLSSLTSEDSAVYYCAREVRLRYFDVWGQGTTVTVSSTREQKLISEEDGSGTPFPSLAPPIMLLVDGKQQMVVVCLVLDVAPPGLDSPIWFSAGNGSALDAFTYGPSPATDGTWTNLAHLSLPSEELASWEPLVCHTGPGAEGHSRSTQPMHLSGEASTARTCPQEPLRGTPGGALWLGVLRLLLFKLLLFDLLLTCSCLCDPAGPLPSPATTTRLRALGSHRLHPATETGGREATSSPRPQPRDRRWGDTPPGRKPGSPVRAKRSGSGVKQTLNFDLLKLAGDVESNPGPSRGHMTEYKPTVRLATRDDVPRAVRTLAAAFADYPATRHTVDPDRHIERVTELQELFLTRVGLDIGKVWVADDGAAVAVWTTPESVEAGAVFAEIGPRMAELSGSRLAAQQQMEGLLAPHRPKEPAWFLATVGVSPDHQGKGLGSAVVLPGVEAAERAGVPAFLETSAPRNLPFYERLGFTVTADVEVPEGPRTWCMTRKPGA
modifications: Polynucleotide encoding a Synthetic Immune Receptor (SIR)
With B2, the “NFAT-GFP ASSAY Positive Cell lines: HL60” value is given as “+” and the “NFAT-GFP ASSAY Positive Cell lines: RAJI” value is recorded as “RAJI (+/−), HL60”. For the same molecule, the “NFAT-GFP ASSAY Positive Cell lines: KG1” value (SIR-expressing Jurkat-NFAT-GFP cells cocultured with KG1) was “KG1 (+/−)”. Further, the “NFAT-GFP ASSAY Positive Cell lines: THP1” value (SIR-expressing Jurkat-NFAT-GFP cells cocultured with THP1) is reported as “+/−”.

B3: 062717-Q04 (protein)
chain: MALPVTALLLPLALLLHAARPLEGKPIPNPLLGLDSTGSGEDLKNVFPPEVAVFEPSKAEIAHTQKATLVCLATGFYPDHVELSWWVNGKEVHSGVCTDPQPLKEQPALNDSRYCLSSRLRVSATFWQNPRNHFRCQVQFYGLSENDEWTQDRAKPVTQIVSAEAWGRADCGITSASYHQGVLSATILYEILLGKATLYAVLVSALVLMAMVKRKDSRGRAKRSGSGATNFSLLKQAGDVEENPGPTSMALPVTALLLPLALLLHAARPQSALTQPASASGSPGQSVTISCTGTSSDVGGYNYVSWYQQHPGKAPKLMIYDVSNRPSGVSNRFSGSKSGNTASLTISGLQAEDEADYYCSSYTSSSTLYVFGTGTQLTVLGGGGSGGGGSGGGGSEVQLQQSGPGLVKPSQTLSLTCAISGDSMLSNSDTWNWIRQSPSRGLEWLGRTYHRSTWYDDYASSVRGRVSINVDTSKNQYSLQLNAVTPEDTGVYYCARVRLQDGNSWSDAFDVWGQGTMVTVSSTREQKLISEEDGSGIQNPDPAVYQLRDSKSSDKSVCLFTDFDSQTNVSQSKDSDVYITDKCVLDMRSMDFKSNSAVAWSNKSDFACANAFNNSIIPEDTFFPSSDVPCDVKLVEKSFETDTNLNFQNLSVIGFRILLLKVAGFNLLMTLRLWSSRAKRSGSGVKQTLNFDLLKLAGDVESNPGPSRGHMTEYKPTVRLATRDDVPRAVRTLAAAFADYPATRHTVDPDRHIERVTELQELFLTRVGLDIGKVWVADDGAAVAVWTTPESVEAGAVFAEIGPRMAELSGSRLAAQQQMEGLLAPHRPKEPAWFLATVGVSPDHQGKGLGSAVVLPGVEAAERAGVPAFLETSAPRNLPFYERLGFTVTADVEVPEGPRTWCMTRKPGA
With B3, the “NFAT-GFP ASSAY Positive Cell lines: RAJI” value was “RAJI (+)”.

B4: 032216-W04 (protein)
chain: MALPVTALLLPLALLLHAARPDEIVLTQSPGSLAVSPGERVTMSCKSSQSVFFSSSQKNYLAWYQQIPGQSPRLLIYWASTRESGVPDRFTGSGSGTDFTLTISSVQPEDLAIYYCHQYLSSRTFGQGTKLEIKRLEGKPIPNPLLGLDSTGSGEDLKNVFPPEVAVFEPSKAEIAHTQKATLVCLATGFYPDHVELSWWVNGKEVHSGVCTDPQPLKEQPALNDSRYCLSSRLRVSATFWQNPRNHFRCQVQFYGLSENDEWTQDRAKPVTQIVSAEAWGRADCGITSASYHQGVLSATILYEILLGKATLYAVLVSALVLMAMVKRKDSRGRAKRSGSGATNFSLLKQAGDVEENPGPTSMDWIWRILFLVGAATGAHSFEQVQLQQPGAEVVKPGASVKMSCKASGYTFTSYYIHWIKQTPGQGLEWVGVIYPGNDDISYNQKFQGKATLTADKSSTTAYMQLSSLTSEDSAVYYCAREVRLRYFDVWGQGTTVTVSSTREQKLISEEDGSGIQNPDPAVYQLRDSKSSDKSVCLFTDFDSQTNVSQSKDSDVYITDKCVLDMRSMDFKSNSAVAWSNKSDFACANAFNNSIIPEDTFFPSSDVPCDVKLVEKSFETDTNLNFQNLSVIGFRILLLKVAGFNLLMTLRLWSSRAKRSGSGVKQTLNFDLLKLAGDVESNPGPSRGHMTEYKPTVRLATRDDVPRAVRTLAAAFADYPATRHTVDPDRHIERVTELQELFLTRVGLDIGKVWVADDGAAVAVWTTPESVEAGAVFAEIGPRMAELSGSRLAAQQQMEGLLAPHRPKEPAWFLATVGVSPDHQGKGLGSAVVLPGVEAAERAGVPAFLETSAPRNLPFYERLGFTVTADVEVPEGPRTWCMTRKPGA
modifications: Polynucleotide encoding a Synthetic Immune Receptor (SIR)
B4: the “NFAT-GFP ASSAY Positive Cell lines: HL60” value is on record as “HL60 (+), MOLM13”.

B5: 090116-F02 (protein)
chain: MALPVTALLLPLALLLHAARPLEGKPIPNPLLGLDSTGSGEDLKNVFPPEVAVFEPSKAEIAHTQKATLVCLATGFYPDHVELSWWVNGKEVHSGVCTDPQPLKEQPALNDSRYCLSSRLRVSATFWQNPRNHFRCQVQFYGLSENDEWTQDRAKPVTQIVSAEAWGRADCGITSASYHQGVLSATILYEILLGKATLYAVLVSALVLMAMVKRKDSRGRAKRSGSGATNFSLLKQAGDVEENPGPTSMALPVTALLLPLALLLHAARPDDIVMTQSPDSLTVSLGERTTINCKSSQSVLDSSKNKNSLAWYQQKPGQPPKLLLSWASTRESGIPDRFSGSGSGTDFTLTIDSLQPEDSATYYCQQSAHFPITFGQGTRLEIKGGGGSGGGGSGGGGSQVQLVQSGAEVKKPGASVKVSCKASGYTFTNYGMNWVKQAPGQGLKWMGWINTYTGEPTYADDFKGRVTMTSDTSTSTAYLELHNLRSDDTAVYYCARWSWSDGYYVYFDYWGQGTTVTVSSTREQKLISEEDGSGIQNPDPAVYQLRDSKSSDKSVCLFTDFDSQTNVSQSKDSDVYITDKCVLDMRSMDFKSNSAVAWSNKSDFACANAFNNSIIPEDTFFPSSDVPCDVKLVEKSFETDTNLNFQNLSVIGFRILLLKVAGFNLLMTLRLWSSRAKRSGSGVKQTLNFDLLKLAGDVESNPGPSRGHMTEYKPTVRLATRDDVPRAVRTLAAAFADYPATRHTVDPDRHIERVTELQELFLTRVGLDIGKVWVADDGAAVAVWTTPESVEAGAVFAEIGPRMAELSGSRLAAQQQMEGLLAPHRPKEPAWFLATVGVSPDHQGKGLGSAVVLPGVEAAERAGVPAFLETSAPRNLPFYERLGFTVTADVEVPEGPRTWCMTRKPGA
modifications: Synthetic Immune Receptor (SIR)
For B5, the “NFAT-GFP ASSAY Positive Cell lines: HL60” value is given as “HL60 (+/−)”.
